According to US11692025 (UNIVERSITY COURT OF THE UNIVERSITY OF ABERDEEN, dated 2023):
Changes are numbered by the printed parent chain. Each block holds one binder with its values, some of them ahead of it.

Legend:
human serum albumin [1] = target: T1, human serum albumin (human, UniProt P02768 25-609); test: screening of the unselected immunized library on HSA
T1 construct: also called HSA; HAS

human serum albumin [2] = target: T1, human serum albumin; test: BIAcore, pH 7.4, monomeric 6xHis-tagged VNAR
mouse serum albumin [3] = target: T2, mouse serum albumin (mouse, UniProt P07724 25-608); test: BIAcore, pH 7.4, monomeric 6xHis-tagged VNAR
T2 construct: also called MSA
T2 sequence (P07724 25-608 limits assumed): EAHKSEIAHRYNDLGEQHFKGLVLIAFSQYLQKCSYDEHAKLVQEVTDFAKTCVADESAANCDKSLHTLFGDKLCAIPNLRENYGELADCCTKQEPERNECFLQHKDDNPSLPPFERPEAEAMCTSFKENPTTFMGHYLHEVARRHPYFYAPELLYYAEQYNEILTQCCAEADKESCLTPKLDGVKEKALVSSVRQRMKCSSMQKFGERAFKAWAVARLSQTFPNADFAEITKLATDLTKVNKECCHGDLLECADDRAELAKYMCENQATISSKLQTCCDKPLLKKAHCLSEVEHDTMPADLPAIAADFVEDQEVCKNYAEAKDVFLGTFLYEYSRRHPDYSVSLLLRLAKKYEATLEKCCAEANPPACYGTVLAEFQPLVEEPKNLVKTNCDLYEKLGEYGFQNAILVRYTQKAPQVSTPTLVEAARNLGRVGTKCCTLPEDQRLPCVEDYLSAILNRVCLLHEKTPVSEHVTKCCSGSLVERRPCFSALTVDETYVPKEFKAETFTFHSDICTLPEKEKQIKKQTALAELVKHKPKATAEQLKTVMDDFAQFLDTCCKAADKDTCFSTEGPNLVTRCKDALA

rat serum albumin [4] = target: T3, rat serum albumin (rat, UniProt P02770 25-608); test: BIAcore, pH 7.4, monomeric 6xHis-tagged VNAR
T3 construct: also called RSA
T3 sequence (P02770 25-608 limits assumed): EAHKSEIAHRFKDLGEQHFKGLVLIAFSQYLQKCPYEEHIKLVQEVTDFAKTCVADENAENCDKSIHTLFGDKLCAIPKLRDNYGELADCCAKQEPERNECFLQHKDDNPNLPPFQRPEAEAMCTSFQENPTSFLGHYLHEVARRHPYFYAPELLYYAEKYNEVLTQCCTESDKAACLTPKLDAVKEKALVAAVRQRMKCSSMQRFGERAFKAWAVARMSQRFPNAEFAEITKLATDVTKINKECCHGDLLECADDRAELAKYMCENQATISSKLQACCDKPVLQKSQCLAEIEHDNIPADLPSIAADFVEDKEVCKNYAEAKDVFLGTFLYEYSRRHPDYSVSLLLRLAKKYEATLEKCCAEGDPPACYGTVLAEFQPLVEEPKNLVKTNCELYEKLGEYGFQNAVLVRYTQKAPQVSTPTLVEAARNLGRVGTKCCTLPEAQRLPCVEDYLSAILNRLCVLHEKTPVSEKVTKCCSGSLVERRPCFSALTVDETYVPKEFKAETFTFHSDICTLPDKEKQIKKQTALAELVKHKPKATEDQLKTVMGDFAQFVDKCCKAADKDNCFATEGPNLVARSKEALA

human serum albumin [5] = target: T1, human serum albumin; test: BIAcore, pH 6.0, monomeric 6xHis-tagged VNAR
mouse serum albumin [6] = target: T2, mouse serum albumin; test: BIAcore, pH 6.0, monomeric 6xHis-tagged VNAR
rat serum albumin [7] = target: T3, rat serum albumin; test: BIAcore, pH 6.0, monomeric 6xHis-tagged VNAR
human serum albumin [8] = target: T1, human serum albumin; test: phage and periprep ELISA on HSA; purified 6xHis-tagged VNAR
Method: The resultant mutational phage display libraries were rescued and selected twice using Nunc Maxisorp immunotubes. Following each pan, two 96-well plates of individual colonies were picked with a QPix2 XT (Genetix, San Jose, Calif., USA). Binding as monoclonal phage and periprep was evaluated by ELISA. All samples were processed with a Perkin Elmer MiniTrak robotic liquid handling system (Waltham, Mass., USA).

human serum albumin [9] = target: T1, human serum albumin; test: phage display panning on HSA and screening

binding result (human serum albumin [1]): binds
B1: SEQ ID NO 57 (VNAR)
VNAR: AKVDQTPRTTTKETGESLTINCVLTETSYGLSSTSWFQKNPGTTDWERMSIGGRYVESVNTGAKSFSLRIKDLTVADSATYYCKAHAGYGVWNRGLQWRGYDQYDGAGTVLTVN
notes: clone name not tied to this number; one of the 13 entries may be a consensus

binding result (human serum albumin [1]): binds
B2: SEQ ID NO 58 (VNAR)
VNAR: TRVDQTPRTATKETGESLTINCVLTDTSYPLYSTYWYRKNPGSSNKEQISISGRYVESVNKGTKSFSLRIKDLTVADSATYICRAYTPGREDYGAGTVLTVN
notes: as for B1

binding result (human serum albumin [1]): binds
B3: SEQ ID NO 52 (VNAR)
VNAR: IRVDQTPRTATKETGESLTINCVLTGTVCGMYSTSWSRKNPGRADWERISIGGRYVESVNKGAKSFSLRIRDLTVADSATYCCSAESPPICTSQGIAAVTKYYDGAGTVLTVN
notes: as for B1

binding result (human serum albumin [1]): binds
B4: SEQ ID NO 54 (VNAR)
VNAR: ARVDQTPRTATKETGESLTINCVLTDTSYPLYSTYWYRKNPGSSNKEQISISGRYVESVNKGTKSFSLRIKDLTVADSATYICRAYTIHIKLEQHGAGTVLTVN
notes: as for B1

binding result (human serum albumin [1]): binds
B5: SEQ ID NO 60 (VNAR)
VNAR: ASVNQTPRTATKETGESLTINCVLTGTSCSLYSTSWFRKNPGTTDWERISIGGRYVESVNKGAKSFSLRIKDLTVADSATYYCKAEKGRKGSAITSCRRSSYYDGAGTVLTVN
notes: as for B1

Fold change from E06 (human serum albumin [2]): 84.9 fold | Kd (human serum albumin [2]): 16 nM | koff (human serum albumin [2]): 0.014 s⁻¹ | kon (human serum albumin [2]): 872000 M⁻¹ s⁻¹ | Fold change from E06 (mouse serum albumin [3]): 59.4 fold | Kd (mouse serum albumin [3]): 49.2 nM | koff (mouse serum albumin [3]): 0.0414 s⁻¹ | kon (mouse serum albumin [3]): 841000 M⁻¹ s⁻¹ | Fold change from E06 (rat serum albumin [4]): 52 fold | Kd (rat serum albumin [4]): 75.3 nM | koff (rat serum albumin [4]): 0.0329 s⁻¹ | kon (rat serum albumin [4]): 436000 M⁻¹ s⁻¹ | Fold change from E06 (human serum albumin [5]): 35.6 fold | Kd (human serum albumin [5]): 5.07 nM | koff (human serum albumin [5]): 0.0184 s⁻¹ | kon (human serum albumin [5]): 3.62e+06 M⁻¹ s⁻¹ | Fold change from E06 (mouse serum albumin [6]): 28.3 fold | Kd (mouse serum albumin [6]): 9.28 nM | koff (mouse serum albumin [6]): 0.0318 s⁻¹ | kon (mouse serum albumin [6]): 3.43e+06 M⁻¹ s⁻¹ | Fold change from E06 (rat serum albumin [7]): 29 fold | Kd (rat serum albumin [7]): 9.94 nM | koff (rat serum albumin [7]): 0.031 s⁻¹ | kon (rat serum albumin [7]): 3.12e+06 M⁻¹ s⁻¹
B6: huE06 v1.1 (VNAR)
VNAR: TRVDQSPSSLSASVGDRVTITCVLTDTSYPLYSTYWYQQKPGSSNKEQISISGRYSESVNKGTKSFTLTISSLQPEDFATYYCRAMGTNIWTGDGAGTKVEIK
notes: Humanized VNAR, tested as monomeric 6xHis-tagged protein; also called humanized E06 v1.1; not shown: 6xHis tag

Fold change from E06 (human serum albumin [2]): 33.9 fold | Kd (human serum albumin [2]): 6.4 nM | koff (human serum albumin [2]): 0.00357 s⁻¹ | kon (human serum albumin [2]): 559000 M⁻¹ s⁻¹ | Fold change from E06 (mouse serum albumin [3]): 28.1 fold | Kd (mouse serum albumin [3]): 23.2 nM | koff (mouse serum albumin [3]): 0.00959 s⁻¹ | kon (mouse serum albumin [3]): 412000 M⁻¹ s⁻¹ | Fold change from E06 (rat serum albumin [4]): 25.4 fold | Kd (rat serum albumin [4]): 36.8 nM | koff (rat serum albumin [4]): 0.0165 s⁻¹ | kon (rat serum albumin [4]): 449000 M⁻¹ s⁻¹ | Fold change from E06 (human serum albumin [5]): 12.7 fold | Kd (human serum albumin [5]): 1.81 nM | koff (human serum albumin [5]): 0.00637 s⁻¹ | kon (human serum albumin [5]): 3.52e+06 M⁻¹ s⁻¹ | Fold change from E06 (mouse serum albumin [6]): 12.2 fold | Kd (mouse serum albumin [6]): 3.98 nM | koff (mouse serum albumin [6]): 0.0125 s⁻¹ | kon (mouse serum albumin [6]): 3.14e+06 M⁻¹ s⁻¹ | Fold change from E06 (rat serum albumin [7]): 12.2 fold | Kd (rat serum albumin [7]): 4.17 nM | koff (rat serum albumin [7]): 0.0152 s⁻¹ | kon (rat serum albumin [7]): 3.65e+06 M⁻¹ s⁻¹
B7: huE06 v1.10 (VNAR)
VNAR: B6 VNAR with Q38R, Q39K, K40N
notes: Humanized VNAR, tested as monomeric 6xHis-tagged protein; also called hE06v1.10; humanized E06 v1.10; not shown: 6xHis tag

binding result (human serum albumin [8]): binds
B8: AG11 (VNAR)
chain: B6 VNAR with Q38R, Q39K, K40N, I102T
notes: Variant of huE06 v1.10 from error-prone PCR

binding result (human serum albumin [8]): binds
B9: AD4 (VNAR)
VNAR: B6 VNAR with Q38R, Q39K, K40N, I51M, G62S
notes: as for B8

binding result (human serum albumin [8]): binds
B10: AH7 (VNAR)
VNAR: B6 VNAR with S6T, Q38R, Q39K, K40N, F66S
notes: as for B8

binding result (human serum albumin [8]): binds
B11: AC9 (VNAR)
VNAR: B6 VNAR with Q38R, Q39K, K40N, F66S
notes: as for B8

binding result (human serum albumin [9]): binds
B12: SEQ ID NO 33 (VNAR)
VNAR: ARVDQTPRTATKETGESLTINCVLTDTSYPLYSTYWYRKNPGSSNKEQISISGRYVESVNKGTKSFSLRIKDLTVADSATYICRAMGTDSWTGDGAGTVLTVN
notes: clone name not tied to this number

binding result (human serum albumin [9]): binds
B13: SEQ ID NO 38 (VNAR)
VNAR: B12 VNAR with A1T, S33R
notes: as for B12

binding result (human serum albumin [9]): binds
B14: SEQ ID NO 44 (VNAR)
VNAR: B12 VNAR with A1T, Q48R, D89N, S90I
notes: as for B12

binding result (human serum albumin [9]): binds
B15: SEQ ID NO 50 (VNAR)
VNAR: B12 VNAR with R2S, D4N, Q48R
notes: as for B12

binding result (human serum albumin [1]): binds
B16: SEQ ID NO 56 (VNAR)
VNAR: B12 VNAR with R2S, D4N, T27A, S50P, D89N, S90G
notes: as for B1

binding result (human serum albumin [1]): binds
B17: SEQ ID NO 59 (VNAR)
VNAR: B12 VNAR with T25A, M86S, G87D, T88I, D89A, S90M, W91G, G93Y, V99A
notes: as for B1

binding result (human serum albumin [9]): binds
B18: SEQ ID NO 49 (VNAR)
VNAR: B12 VNAR with R2K
notes: as for B12

binding result (human serum albumin [9]): binds
B19: SEQ ID NO 35 (VNAR)
VNAR: B12 VNAR with A1T, D89N, V99A
notes: as for B12

binding result (human serum albumin [9]): binds
B20: SEQ ID NO 42 (VNAR)
VNAR: B12 VNAR with A1T, S33R, D89N
notes: as for B12

binding result (human serum albumin [9]): binds
B21: SEQ ID NO 39 (VNAR)
VNAR: B12 VNAR with A1T, Q48R
notes: as for B12

binding result (human serum albumin [9]): binds
B22: SEQ ID NO 40 (VNAR)
VNAR: B12 VNAR with A1T, Q48R, D89N, V99A
notes: as for B12

binding result (human serum albumin [9]): binds
B23: SEQ ID NO 43 (VNAR)
VNAR: B12 VNAR with A1T, Q48R, V99A
notes: as for B12

binding result (human serum albumin [9]): binds
B24: SEQ ID NO 48 (VNAR)
VNAR: B12 VNAR with R2S, D4N, G87D, D89S, S90A, W91G, T92V, G93V
notes: as for B12

binding result (human serum albumin [1]): binds
B25: SEQ ID NO 63 (VNAR)
VNAR: B12 VNAR with R2S, D4N, S50P, G87D, D89S, S90A, W91G, T92V, G93V
notes: as for B1

binding result (human serum albumin [1]): binds
B26: SEQ ID NO 53 (VNAR)
VNAR: B12 VNAR with M86I, G87T, G93S, V99A
notes: as for B1

binding result (human serum albumin [1]): binds
B27: SEQ ID NO 55 (VNAR)
VNAR: B12 VNAR with S44P, Q48R, T88A, D89N, V99A
notes: as for B1

binding result (human serum albumin [1]): binds
B28: SEQ ID NO 62 (other)
chain: B12 VNAR with A1I, E16G, M86L, G87S, D89Y, S90M, W91E, T92A
notes: as for B1

binding result (human serum albumin [1]): binds
B29: SEQ ID NO 61 (VNAR)
VNAR: B12 VNAR with A79G, A85S, M86I, G87T, D89H, T92S, V99A
notes: as for B1
